# Laboratory results as given in paper PMC5708649, “A novel Porphyromonas gingivalis enzyme: An atypical dipeptidyl peptidase III with an ARM repeat domain” (PLoS ONE, 2017).
# B1: Full length PgDPP III (1–886 aa) (Porphyromonas gingivalis W83) (protein)
# chain: MTKETTQHRSGERIARFADIEVLSYRADLFGTLTPKQRMLCYHLSEAALRGRDITTIQNCRYNLWVRSLMERIYTHLSKSERTDDFALLEEYLFCIWFANGIHHHYSGAKFIARFSPGFLRAALREAGVELEPEEQVLLERVLYDTDFLPKQTEQSGEEDIIKASSVNFYAPGITRAEAESHYKNLIEALPENEKSCPPSFGLNTRLIRSTSGELKDEVCCIDGLYGPAIEAVVASLEAAIPYTENEEQAACIRLLCDYYRTGDIRLYDRFCIRWVENNRTRIDFINGFTEVYADPIGIHGSWEGLVHMQDEEAGRRTRIISEHAGWFEAHSPIDARFRKKNPHGISATVVNVLTIAGDSYPATPIGINLPNADWIRAEHGSKSVTIDNITDAYNHAARGTGLYEEFIPDEEVRRHVELHADLTDSLHTDLHECLGHGSGQLLPGVPGDALGEHASTLEETRADLFALYFLADPKMIELGLLTDPDAYKANYYKYMLNGLMTQLVRIKRGEEIEEAHMRNRALIARYVLEHAERPGAMSLVCEEGKTALVIKDYEAVRAIIAGLLTEVQRIKSEGDYTAGKALVERYAVHVDPLLHEEVLTRYAKLDIAPYKGFVNPRLRPVYNSEGRLTDATIEYTEGYAEQMLRYSAEYSFLPTDSPLLQEARRLRSHLRRAMDGVLSASMREKGLHYGINFGVTREHLLRLARTADASAPLADYLWRRDVRETKILATMIFPAEELTHEQATRLLREADNVELREQLTANLLERMPEAIRSIGRWIESKETTPDMMTGVLTLAARLFTRGIFPEDVPAEKLLTLAILHLSDEEQKAELRRASALLLKRYGRGSAERTKKVLCLLPESSQDTAPVLYELCEDIRFELDFYPKDE
# Columns and labels:
# [1] = substrate: Cc1cc(=O)oc2cc(NC(=O)[C@H](CCCNC(=N)N)NC(=O)[C@@H](N)CCCNC(=N)N)ccc12; assay: purified protein, by the assay type; conditions: pH 8.0; 26.0 °C
# [2] = substrate: N=C(N)NCCC[C@H](NC(=O)[C@@H](N)CCCNC(=N)N)C(=O)Nc1ccc2ccccc2c1; assay: purified protein, by the assay type; conditions: pH 8.0; 26.0 °C
protein,measurement,setting,value
B1,Km,[1],2.56 ± 0.32 µM
same,kcat,[1],0.29 ± 0.11 s⁻¹
same,kcat/Km,[1],113000 M⁻¹ s⁻¹
same,Km,[2],0.97 ± 0.16 µM
same,kcat,[2],0.75 ± 0.13 s⁻¹
same,kcat/Km,[2],773000 M⁻¹ s⁻¹
